# In publication PMC6009097, “Design and biological characterization of novel cell-penetrating peptides preferentially targeting cell nuclei and subnuclear regions” (Beilstein Journal of Organic Chemistry, 2018):
# Marks after values point to notes of the source that are not given here. Where no end group is shown, it is not given here.
# How the values were obtained:
# [1] = test system: MCF-7 cells; test: Doxorubicin uptake on co-administration, fluorescence microscopy; assay type: cell-based; settings: MCF-7, DOX 10 µg/mL, 30 min, 37 °C
# Protocol: (§1) Doxorubicin is known to be fluorescent and this property was used to test if the peptides were able to enhance the intracellular uptake of the drug. Therefore, solutions out of DOX and the sequences N50-sC18* and NrTP-sC18* were incubated with HeLa and MCF-7 cells, respectively, and observed for red fluorescence afterwards (Figure 7A and 7B).
# (§2) Figure 7 Uptake and delivery of DOX into HeLa and MCF-7 cells. Fluorescence microscopic images after 30 min incubation in HeLa (A) and MCF-7 (B) cells with 10 μM CF-labeled peptides N50-sC18* or NrTP-sC18* co-incubated with 10 μg/mL doxorubicin at 37 °C, respectively. Cells treated with DOX alone served as negative control; Green: CF-labeled peptide; blue: Hoechst 33342 nuclear stain; red: doxorubicin; scale bar is 10 µm. (C) Cells were incubated for 48 h with DOX (1 µg/mL), or solutions out of peptides (10 µM) and DOX (1 µg/mL), or peptide solutions (10 µM) alone. Untreated cells served as negative control, cells treated for 10 min with 70% ethanol as positive control. Experiments were conducted in triplicate with n = 2.
# (§3) Cells were seeded in 350 μL medium in an 8-well ibidi plate (HeLa 45,000, MCF-7 70,000 cells per well) and were grown to 70–80% confluency. […] After adding 300 μL of fresh medium, pictures were taken using a fluorescence confocal microscope. […]
# [2] = test system: HeLa cells; test: as above; assay type: cell-based; settings: DOX 10 µg/mL, 30 min, 37 °C
# Protocol: as §1, §2, §3
# [3] = test system: MCF-7 cells; test: Cytotoxicity of doxorubicin co-incubated with peptides (resazurin viability assay); assay type: cell-based; settings: 48 h
# Protocol: as §2, with “Fluorescence” for “Figure 7 Uptake and delivery of DOX into HeLa and MCF-7 cells. Fluorescence”
# Herein, the drug alone (1 μg/mL) or in presence of 10 μM solutions of the peptides sC18*, N50-sC18* and NrTP-sC18*, respectively, were incubated for 48 h with MCF-7 cells.
# (§4) A total volume of 200 μL of cells (HeLa 40’000, MCF-7 50’000 cells per well) were seeded in 96-well plates and grown to 70–80% confluency. Afterwards, they were incubated with peptide or doxorubicin solutions (diluted in serum-free medium) in a total volume of 100 μL. In the wells that served as positive and negative controls, the medium was replaced by fresh medium without FBS. The plates were incubated for 24 h or 48 h at 37 °C. Afterwards, the positive control was treated with 100 μL of 70% EtOH for 10 min, and then all cells were washed with PBS. Cells were covered with 100 μL of a 10% resazurin solution in medium without FBS and incubated for 1–2 h at 37 °C. Afterwards, fluorescence was quantified by using a Tecan infinite M200 plate reader (excitation: 550 nm, emission: 595 nm).
# Experiments were done in triplicate.
# [4] = test system: MCF-7 cells; test: Cellular uptake, confocal fluorescence microscopy; assay type: cell-based; settings: MCF-7, 10 µM CF-labeled peptide, 30 min; for cellular uptake (microscopy) / intracellular distribution: 37 °C, confocal fluorescence; for cellular uptake (microscopy): trypan blue quench
# Protocol: (§5) Next, we analyzed the intracellular fate of the new peptide variants using confocal fluorescence microscopy. Thus, MCF-7 and HeLa cells were incubated with 10 µM peptide solutions at 37 °C and inspected after 30 min (Figure 3).
# (§6) Figure 3 Cellular uptake in HeLa and MCF-7 cells. Cells were incubated for 30 min with 10 µM of CF-labeled peptide solutions. Green: CF-labeled peptide; blue: Hoechst 33342 nuclear stain; scale bar is 10 µm.
# (§7) For microscopic analyses, a confocal laser scanning system (Nikon D-Eclipse C1) with an inverted microscope (Nikon Eclipse Ti) was used. Pictures were taken with a 60× oil immersion objective (N.A. 1.4, Plan APO VC; Nikon) using the software EZ-C1 3.91 from Nikon.
# (§8) Cells were seeded in 350 μL medium in an 8-well ibidi plate (HeLa 45,000, MCF-7 70,000 cells per well) and were grown to 70–80% confluency. Then, the medium was removed and the cells were treated with the peptides and substances in various concentrations for the requested time. Cells were incubated at 4 °C or 37 °C and 10 min prior to the end of incubation 0.6 μL of Hoechst stain (bisbenzimide H33342, 1 mg/mL in H2O, sterile filtered) was added to each well to stain the cell nuclei. After removing the solutions, cells were quenched with 200 μL of 150 μM trypan blue solution (in acetate buffer) for 30 s. The stain was removed and the cells were washed twice with medium. After adding 300 μL of fresh medium, pictures were taken using a fluorescence confocal microscope. Images were edited in Image J 1.43m.
# [5] = test system: HeLa cells; test: Cellular uptake, confocal fluorescence microscopy; assay type: cell-based; settings: 10 µM CF-labeled peptide, 30 min, 37 °C; for cellular uptake (microscopy): trypan blue quench
# Protocol: as §5, §6, §7, §8
# [6] = test system: HeLa cells; test: Cellular uptake, confocal fluorescence microscopy; assay type: cell-based; settings: 1 μM CF-labeled peptide, 37 °C; for cellular uptake (microscopy) at 1 μM: 30 and 120 min; for intracellular distribution at 1 μM: 30 or 120 min
# [7] = test system: HeLa cells; test: Resazurin-based cell viability assay; settings: 24 h; for concentration up to which no significant toxicity was observed: 37 °C, serum-free medium, resazurin read-out, n = 3 in triplicate
# Protocol: (§9) In the next step, the cytotoxicity profiles of the novel peptide chimera were investigated. Therefore, we chose two different cancer cell lines, namely breast cancer MCF-7 and cervix carcinoma HeLa cells, which were exposed for 24 h to various concentrations of the peptides sC18*, N50, N50-sC18*, NrTP and NrTP-sC18* (Figure 2).
# (§10) Figure 2 Cytotoxicity profiles of the peptides in MCF-7 and HeLa cells. Cells were incubated for 24 h with different concentrations of peptide solutions. Untreated cells served as negative control, cells treated with 70% ethanol as positive control. Values from the positive control were subtracted from all data, and the untreated cells were set to 100%; assays were performed with n = 3 in triplicate.
# as §4
# To achieve comparably results, the positive control was subtracted from all data and the negative control was set to 100%, so that the results of the peptide-treated cells represent relative cell viability values in %. Experiments were done in triplicate.
# Peptide solutions of 1, 5, 10,
# 25, 40, 55, 70, 85 and 100 µM were incubated with HeLa cells (24 h, 37 °C). Afterwards a resazurin-based cell
# viability assay was performed according to the experimental part.
# (1 picture or pasted object on this page, not shown here)
# [8] = Circular dichroism spectroscopy (secondary structure); assay type: physicochemical; settings: 10 mM phosphate buffer pH 7.0 with TFE (50%), peptide 20 µM
# Protocol: First, we performed a structural analysis by diluting all peptides to a concentration of 20 μM in phosphate buffer (pH 7.0), with or without the presence of the secondary structure inducing solvent trifluoroethanol (TFE).
# Figure 1 Circular dichroism spectra of the novel peptides solved in 10 mM phosphate buffer (pH 7) (A), or phosphate buffer with the addition of TFE (50%) (B). Peptide concentration was 20 µM. (C) Helical wheel projections of the peptides N50-sC18* and NrTP-sC18*, respectively.
# All peptides were analyzed in 10 mM potassium phosphate buffer (pH 7.0) with or without the addition of TFE (1:1 dilution) using a peptide concentration of 20 µM. Peptides were measured in a 0.1 cm quartz cuvette with a sensitivity of 100 mdeg in the range from 260 to 180 nm in 0.5 nm intervals. The scanning mode was continuous and a scanning speed of 50 nm/min was chosen. The results of pure buffer were subtracted from the spectra of the peptides. The ratio between the molar ellipticity at 222 nm and 207 nm was used to confirm an α-helical structure of peptides.
# [9] = test system: several different cell lines; settings: cited from earlier work
# Protocol: Within their studies, the authors used higher concentrations, longer incubation times and other cell lines, what could probably explain the different results obtained in our study. In fact, it is very likely that working with increased concentrations of the NrTP sequence could probably improve the cell-penetrating capability of this peptide. Also for the N50 sequence alone, the internalization ability in several different cell lines was already determined [[2 ...
# [10] = test system: MCF-7 cells; test: Cellular uptake quantified by flow cytometry; assay type: cell-based; settings: MCF-7, 10 µM peptide, 30 min, 37 °C, serum-free medium, 10,000 cells, triplicate
# Protocol: (§11) Figure 4 Cellular uptake in MCF-7 and HeLa cells was quantified by flow cytometry. Cells were incubated with 10 µM peptide solutions for 30 min at 37 °C.
# (§12) Cells were seeded in 24-well plates (HeLa 170,000, MCF-7 200,000 cells per well) and grown to 70–80% confluency. Then, cells were treated with 400 μL of peptide solutions dissolved in serum-free medium for the appropriate time at 4 °C or 37 °C. Afterwards, the cells were washed twice with PBS and detached with Trypsin-EDTA 1× in PBS without phenol red for 3–5 min followed by adding 800 μL of indicator-free medium. Cells were resuspended and 200 μL of the suspension were transferred to a 96-well plate for measuring the fluorescence in the Guava® easyCyte flow cytometer (Merck). In each sample, 10,000 cells were measured and each experiment was done in triplicate. Cells treated with medium only served as negative control and their fluorescent signal was subtracted from all other samples in each set of experiment.
# [11] = test system: HeLa cells; test: Cellular uptake quantified by flow cytometry; assay type: cell-based; settings: 10 µM peptide, 30 min, 37 °C, serum-free medium, 10,000 cells, triplicate
# Protocol: as §11, §12
# [12] = test system: MCF-7 cells; test: Resazurin-based cell viability assay; settings: 24 h, 37 °C, serum-free medium, resazurin read-out, n = 3 in triplicate
# Protocol: as §9, §10
# as §4, with “Afterwards, the positive control was treated with 100 μL of 70% EtOH for 10 min, and then all cells were washed with PBS. Cells were covered with 100 μL of a 10% resazurin solution in medium without FBS and incubated for 1–2 h at 37 °C.” left out, “nm). […]” for “nm).”
# [13] = MCF-7, peptide 10 μM + DOX 1 μg/mL
Compound,cellular uptake (microscopy) [4],cellular uptake (microscopy) [5],cellular uptake (microscopy) at 1 μM [6],concentration up to which no significant toxicity was observed ([7]; HeLa cells) [µM],secondary structure (CD) [8],"effect of the peptide on the toxic effect / efficacy of DOX [3, 13]",cellular uptake (flow cytometry) [10],cellular uptake (flow cytometry) [11],concentration up to which no toxic effects were observed [12] [µM],intracellular distribution at 4 °C [4],intracellular distribution [4],intracellular distribution [5],intracellular distribution at 1 μM [6],other results
COc1cccc2c1C(=O)c1c(O)c3c(c(O)c1C2=O)C[C@@](O)(C(=O)CO)C[C@@H]3O[C@H]1C[C@H](N)[C@H](O)[C@H](C)O1 [doxorubicin],–,–,–,–,–,–,–,–,–,–,–,–,–,"red fluorescence of DOX in cells, DOX only [1]: Minor red fluorescence; red fluorescence of DOX in cells, DOX only [2]: Minor red fluorescence; amount of viable cells, doxorubicin alone ([3]; MCF-7, DOX 1 μg/mL, triplicate with n = 2): about 60%"
"GLRKRLRKFRNK [sC18*, shortened version of the cell-penetrating peptide sC18, lacking its four C-terminal amino acids]",only small dots were detectable,only small dots were detectable,no uptake at all,≤ 50,α-helical character,could not enhance the efficacy of DOX,–,–,–,–,–,–,–,–
"VQRKRQKLMP [N50, reference compound]",not noticeable present,not noticeable present,no uptake at all,≤ 50,random coil structure,–,–,–,–,–,–,–,–,internalization ability / uptake [9]: very low
VQRKRQKLMPGLRKRLRKFRNK [N50-sC18*],entered the cells extremely efficiently compared to sC18* alone,entered the cells extremely efficiently compared to sC18* alone,–,≤ 50,formed α-helices,significantly improved,extremely high uptake,extremely high uptake,≤ 100,mainly detectable within the nuclei,"distributed within the whole cell cytosol, and accumulated particularly around the nucleus","distributed within the whole cell cytosol, and accumulated particularly around the nucleus","diffusely distributed within the cytosol and the nuclei of HeLa cells, and after 120 min it mainly accumulated within the nuclei","R-value (ratio between the molar ellipticity at 222 nm and 207 nm) ([8]; CD): 0.83; number of viable cells after co-treatment with DOX ([3]; MCF-7, peptide 10 μM + DOX 1 μg/mL, triplicate with n = 2): 30%"
YKQCHKKGGKKGSGGLRKRLRKFRNK-NH2 [NrTP-sC18*],entered the cells extremely efficiently compared to sC18* alone,entered the cells extremely efficiently compared to sC18* alone,–,≤ 50,–,–,extremely high uptake,extremely high uptake,≤ 100,"evenly distributed throughout the whole cell, including strong accumulation in the nuclei",strong accumulation within the nucleoli,strong accumulation within the nucleoli,accumulates in endosomes,"IC50 [7]: 53.7 ± 4.79 µM; effect on cell viability at 50 µM ([7]; HeLa cells, 50 µM): seemed to affect cell viability; effect on cell viability at higher concentrations ([7]; HeLa cells, concentrations above 50 µM): all cells were dead"
